Measurements published in patent publication US20140057332A1, “GLUCO-OLIGOSACCHARIDE OXIDASES FROM ACREMONIUM STRICTUM AND USES THEREOF” (The Governing Council of the University of Toronto, priority 2011, published 2014).
Where a chain is given by its changes, count along the chain named. In names and notes the source's numbering stands.

Legend:
[1] = biological target: T1, Acremonium strictum gluco-oligosaccharide oxidase GOOX-VN variant 1 Y300A, SEQ ID NO. 6 (Sarocladium strictum, UniProt D7PF15, A38V/S388N/Y300A); assay: Enzymatic assay, kinetic analysis (chromogenic H2O2 assay) of Y300A; conditions: 37° C., pH 8.0
T1 sequence (D7PF15 1-474 A38V/Y300A/S388N): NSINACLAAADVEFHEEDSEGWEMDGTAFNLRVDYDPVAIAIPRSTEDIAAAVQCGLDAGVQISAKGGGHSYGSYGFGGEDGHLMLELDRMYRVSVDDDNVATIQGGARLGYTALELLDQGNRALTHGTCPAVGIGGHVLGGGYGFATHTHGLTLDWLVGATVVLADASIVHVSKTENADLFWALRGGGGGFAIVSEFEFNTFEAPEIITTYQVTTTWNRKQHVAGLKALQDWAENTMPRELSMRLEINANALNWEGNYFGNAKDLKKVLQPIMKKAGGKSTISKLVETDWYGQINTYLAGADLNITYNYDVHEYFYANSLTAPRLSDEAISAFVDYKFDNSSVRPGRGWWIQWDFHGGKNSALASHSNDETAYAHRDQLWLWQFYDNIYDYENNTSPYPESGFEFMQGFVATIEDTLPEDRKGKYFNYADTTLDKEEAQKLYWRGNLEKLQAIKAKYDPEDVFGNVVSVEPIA
Procedure: (§1) A chromogenic assay was used to measure hydrogen peroxide production (15). Reactions contained 0.1 mM 4aminoantipyrine (4AA), 1 mM phenol, 0.5 U horseradish peroxidase, 40 mM Tris-HCl (pH 8.0), and different substrates were initiated by adding 0.2 μg of enzymes to the 250 μL reaction mixture. The production of H2O2 was coupled to the oxidation of 4aminoantipyrine by horseradish peroxidase and detected at 500 nm. Reactions were incubated at 37° C. for 15 min to measure the specific activity of GOOX on 10 mM of monosaccharide or 1 mM of oligosaccharide.
(§2) At least 12 substrate concentrations were included to obtain kinetic parameters for each substrate. Initial rates were obtained by measuring reaction products every 30 s for 15 min at 37° C. and pH 8.0, and kinetic parameters were calculated using the Michaelis-Menten equation (GraphPad Prism5 Software).

[2] = system: Acremonium strictum strain T1 gluco-oligosaccharide oxidase GOOX-T1; conditions: cited from earlier work
[3] = biological target: T2, Acremonium strictum gluco-oligosaccharide oxidase GOOX-VN variant 2 Y300N, SEQ ID NO. 7 (Sarocladium strictum, UniProt D7PF15, A38V/S388N/Y300N); assay: Enzymatic assay, kinetic analysis (chromogenic H2O2 assay) of Y300N; conditions: 37° C., pH 8.0
T2 sequence (D7PF15 1-474 A38V/Y300N/S388N): T1 sequence (D7PF15 1-474 A38V/Y300A/S388N) with A300N
Procedure: as §1, §2

[4] = biological target: T3, Acremonium strictum gluco-oligosaccharide oxidase GOOX-VN (type strain CBS 346.70, V38 and N388), SEQ ID NO. 2 (Sarocladium strictum, UniProt D7PF15, A38V/S388N); assay: Enzymatic assay, kinetic analysis (chromogenic H2O2 assay) of GOOX-VN; conditions: 37° C., pH 8.0
T3 sequence (D7PF15 1-474 A38V/S388N): T1 sequence (D7PF15 1-474 A38V/Y300A/S388N) with A300Y
Procedure: as §1, §2

[5] = system: Acremonium strictum gluco-oligosaccharide oxidase (GOOX); conditions: oxidation of maltose, Fan et al. (2000); cited from earlier work
[6] = Chromogenic H2O2 oxidase assay / kinetic analysis on NAG
Procedure: as §1, §2

[7] = Effect of deglycosylation with PNGaseF on enzyme activity; format: biochemical; conditions: 10 mM maltose, 15 min at 37° C., duplicate
Procedure: Approximately 2 μg of purified enzyme was treated with PNGaseF (New England Biolabs) using denaturing and native conditions. Samples that were deglycosylated using denaturing conditions were analysed by SDS PAGE, while samples deglycosylated using native conditions were used to evaluate the impact of glycosylation on enzyme activity. The activity of enzymes was measured on 10 mM maltose at 37° C. for 15 min. (Table 7). N-glycosylation was predicted by NetNGlyc (http://www.cbs.dtu.dk/services/NetNGlyc/) while O-glycosylation was predicted by OGPET (http://ogpet.utep.edu/OGPET/).

[8] = Chromogenic H2O2 oxidase assay / kinetic analysis on galactose
Procedure: as §1, §2

[9] = Chromogenic H2O2 oxidase assay / kinetic analysis on xylotriose
Procedure: as §1, §2

[10] = substrate: OC1OC[C@@H](O[C@@H]2OC[C@@H](O)[C@H](O)[C@H]2O)[C@H](O)[C@H]1O; assay: purified protein, by the assay type; conditions: other: 37° C., pH 8.0
Procedure: as §1, §2

[11] = substrate: OC[C@H]1O[C@@H](O[C@H]2[C@H](O)[C@@H](O)C(O)O[C@@H]2CO)[C@H](O)[C@@H](O)[C@@H]1O; assay: purified protein, by the assay type; conditions: other: 37° C., pH 8.0
Procedure: as §1, §2

[12] = substrate: OC[C@H]1O[C@@H](O[C@H]2[C@H](O)[C@@H](O)[C@H](O[C@H]3[C@H](O)[C@@H](O)C(O)O[C@@H]3CO)O[C@@H]2CO)[C@H](O)[C@@H](O)[C@@H]1O; assay: purified protein, by the assay type; conditions: other: 37° C., pH 8.0
Procedure: as §1, §2

[13] = substrate: OC1OC[C@@H](O[C@@H]2OC[C@@H](O[C@@H]3OC[C@@H](O)[C@H](O)[C@H]3O)[C@H](O)[C@H]2O)[C@H](O)[C@H]1O; assay: purified protein, by the assay type; conditions: other: 37° C., pH 8.0
Procedure: as §1, §2

[14] = substrate: OC[C@H]1OC(O)[C@H](O)[C@@H](O)[C@@H]1O; assay: purified protein, by the assay type; conditions: other: 37° C., pH 8.0
Procedure: as §1, §2

[15] = substrate: CC(=O)N[C@H]1C(O)O[C@H](CO)[C@@H](O)[C@@H]1O; assay: purified protein, by the assay type; conditions: other: 37° C., pH 8.0
Procedure: as §1, §2

[16] = substrate: OC1OC[C@@H](O)[C@H](O)[C@H]1O; assay: purified protein, by the assay type; conditions: other: 37° C., pH 8.0
Procedure: as §1, §2

[17] = substrate: OC[C@H]1O[C@H](O[C@H]2[C@H](O)[C@@H](O)C(O)O[C@@H]2CO)[C@H](O)[C@@H](O)[C@@H]1O; assay: purified protein, by the assay type; conditions: other: 37° C., pH 8.0
Procedure: as §1, §2

[18] = substrate: OC[C@H]1OC(O)[C@H](O)[C@@H](O)[C@H]1O; assay: purified protein, by the assay type; conditions: other: 37° C., pH 8.0
Procedure: as §1, §2

[19] = Chromogenic H2O2 oxidase assay / kinetic analysis on glucose
Procedure: as §1, §2

[20] = Chromogenic H2O2 oxidase assay on mannose
Procedure: as §1
An additional eight mutations, identified as Y72F, Y72A, E247A, E314A, W351A, N388S, Q353N, Q384A, were created in GOOX-VN to assess the influence of these residues on the substrate selectivity of GOOX-VN. […] The specific activity of each mutant was then measured at 37° C. for 15 min using 10 mM mono-sugars and 1 mM oligosaccharides as performed for Y300A, Y300N, and W351F (Table 11).

[21] = Chromogenic H2O2 oxidase assay / kinetic analysis on xylobiose
[22] = Chromogenic H2O2 oxidase assay / kinetic analysis on maltose
Procedure: as §1, §2

[23] = Chromogenic H2O2 oxidase assay / kinetic analysis on xylose
Procedure: as §1, §2

[24] = Chromogenic H2O2 oxidase assay / kinetic analysis on cellotriose
[25] = Chromogenic H2O2 oxidase assay / kinetic analysis on cellobiose
Procedure: as §1, §2

[26] = Kinetic analyses, all tested substrates; format: biochemical; conditions: all tested monosaccharides and oligosaccharides
Procedure: as §1, §2

For `OC[C@H]1O[C@@H](O[C@H]2[C@H](O)[C@@H](O)[C@H](O[C@H]3[C@H](O)[C@@H](O)C(O)O[C@@H]3CO)O[C@@H]2CO)[C@H](O)[C@@H](O)[C@@H]1O` (stereo partly shown) [Cellotriose, cellotriose], the kcat [1] is listed as 11.12 ± 0.158 s⁻¹, the “catalytic efficiency (in words)” value ([2]; native GOOX purified from A. strictum T1) is listed as “highest” and the kcat [3] is listed as 9.983 ± 0.0817 s⁻¹.

For `OC[C@H]1O[C@H](O[C@H]2[C@H](O)[C@@H](O)C(O)O[C@@H]2CO)[C@H](O)[C@@H](O)[C@@H]1O` (stereo partly shown) [Maltose, maltose], the kcat [4] is listed as 6 ± 0.085 s⁻¹, the kcat ([4]; listed as maltose) is listed as 6 s⁻¹ and the “Km, pH dependence” value [5] is listed as “highest at pH 9”. The kcat ([2]; recombinant GOOX-T1) was 6.02 s⁻¹.

B1: Acremonium strictum gluco-oligosaccharide oxidase GOOX-VN variant 1 Y300A, SEQ ID NO. 6 (Sarocladium strictum; A38V/S388N/Y300A) (protein)
chain: T1 sequence (D7PF15 1-474 A38V/Y300A/S388N)
For B1, the “Specific activity Defined substrate concentration” value ([6]; 10 mM NAG, 37° C., 15 min) was 1.1 µmol/mg/min, the “Specific activity From Vmax” value ([6]; substrate NAG) was 12.67 µmol/mg/min and the “Activity, Deglycosylated” value ([7]; deglycosylated with PNGaseF (native conditions)) was 3.9 nmol/min. For the same molecule, the “Activity, Glycosylated” value ([7]; glycosylated enzyme) was 4.09 nmol/min, the “Specific activity Defined substrate concentration” value ([8]; 10 mM galactose, 37° C., 15 min) was 1.15 µmol/mg/min and the “Specific activity From Vmax” value ([8]; substrate galactose) was 13.17 µmol/mg/min. The “Specific activity Defined substrate concentration” value ([9]; 1 mM xylotriose, 37° C., 15 min) was 3.22 µmol/mg/min, the “Specific activity From Vmax” value ([9]; substrate xylotriose) was 13.73 µmol/mg/min and the Km [10] was 5.11 ± 0.15 mM. For the same molecule, the Km [11] was 0.24 ± 0.02 mM, the Km [12] was 0.25 ± 0.02 mM and the Km [13] was 3.15 ± 0.11 mM. It also gave a Km [14] of 8.11 ± 0.40 mM, a Km [15] of 92.4 ± 4.65 mM and a kcat [15] of 12.8 ± 0.223 s⁻¹. It also gave a kcat/Km [15] of 138 ± 6.67 M⁻¹ s⁻¹, a Km [16] of 51.84 ± 1.90 mM and a Km [17] of 11.00 ± 0.53 mM. For the same molecule, the kcat [17] was 10.4 ± 0.123 s⁻¹, the kcat/Km [17] was 947 ± 46.7 M⁻¹ s⁻¹ and the Km [18] was 96.39 ± 5.15 mM. The “Specific activity Defined substrate concentration” value ([19]; 10 mM glucose, 37° C., 15 min) was 7.15 µmol/mg/min, the “Specific activity From Vmax” value ([19]; substrate glucose) was 13.09 µmol/mg/min and the “activity on mannose (in words)” value [20] was “low activity”. For the same molecule, the “Specific activity Defined substrate concentration” value ([20]; 10 mM mannose, 37° C., 15 min) was 0.11 µmol/mg/min, the “Specific activity Defined substrate concentration” value ([21]; 1 mM xylobiose, 37° C., 15 min) was 2.10 µmol/mg/min and the “Specific activity From Vmax” value ([21]; substrate xylobiose) was 13.16 µmol/mg/min. The “Specific activity Defined substrate concentration” value ([22]; 1 mM maltose, 37° C., 15 min) was 0.85 µmol/mg/min, the “Specific activity From Vmax” value ([22]; substrate maltose) was 10.31 µmol/mg/min and the “Specific activity Defined substrate concentration” value ([23]; 10 mM xylose, 37° C., 15 min) was 1.57 µmol/mg/min. For the same molecule, the “Specific activity From Vmax” value ([23]; substrate xylose) was 11.22 µmol/mg/min, the “Specific activity Defined substrate concentration” value ([24]; 1 mM cellotriose, 37° C., 15 min) was 9.03 µmol/mg/min and the “Specific activity From Vmax” value ([24]; substrate cellotriose) was 11.00 µmol/mg/min. The “Specific activity Defined substrate concentration” value ([25]; 1 mM cellobiose, 37° C., 15 min) was 10.72 µmol/mg/min, the “Specific activity From Vmax” value ([25]; substrate cellobiose) was 13.58 µmol/mg/min and the “catalytic activity (kcat) relative to GOOX-VN” value [26] was “approximately two times higher”.
